# Source: patent US20230105029A1 (CHIA TAI TIANQING PHARMACEUTICAL GROUP, published 2023)
# Positions count from the first letter of the chain named.
# T1: marmoset monkey IL4Rα-his protein (marmoset monkey)
# T1 construct: Custom made by Sino biological; no cleavage site stated; also called cal-IL4Rα-his; Cal-IL4Rα
# T1 chain: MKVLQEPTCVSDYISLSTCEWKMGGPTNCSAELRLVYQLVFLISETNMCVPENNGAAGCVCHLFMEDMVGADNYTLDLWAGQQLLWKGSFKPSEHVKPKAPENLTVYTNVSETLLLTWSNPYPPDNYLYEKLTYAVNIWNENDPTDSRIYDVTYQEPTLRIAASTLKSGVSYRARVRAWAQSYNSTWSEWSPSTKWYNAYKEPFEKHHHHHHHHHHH
# B1: huB8G11F2B7G5E8-V14 (antibody, human IgG4 S228P, kappa, V domains shown)
# VH: EVQLVQSGAEVKKPGATVKISCKVSGFNIKDTYMHWVKQAPGKGLEWMGRIDPTNGYTIYASKFQGKATITADTSSNTAYMELSSLRSEDTAVYHCVSRRPWFAYWGQGTLVTVSS
# VL: DIVMTQTPLSLSVTPGQPASISCRSSQSIVHSNGNTYLEWYLQKPGQSPQLLIYKVTNRFSGVPDRFSGSGSGTDFTLKISRVEAEDVGVYYCFQGSHVPYTFGQGTKLEIKR
# notes: Humanized, human IgG4/kappa; also called huBSG11F2B7G5E8-V14
# B2: huB8G11F2B7G5E8-V2 (antibody, human IgG4 S228P, kappa, V domains shown)
# VH: B1 VH with M48V
# VL: B1 VL
# notes: Humanized, human IgG4/kappa; also called huBSG11F2B7G5E8-V2
# B3: huB8G11F2B7G5E8-V4 (antibody, human IgG4 S228P, kappa, V domains shown)
# VH: B1 VH with V24A
# VL: B1 VL
# notes: Humanized, human IgG4/kappa; also called huBSG11F2B7G5E8-V4
# B4: huB8G11F2B7G5E8-V6 (antibody, human IgG4 S228P, kappa, V domains shown)
# VH: B1 VH with V24A, M48V, A68V
# VL: B1 VL
# notes: Humanized, human IgG4/kappa; also called huBSG11F2B7G5E8-V6
# B5: huB8G11F2B7G5E8-V7 (antibody, human IgG4 S228P, kappa, V domains shown)
# VH: B1 VH with V24A, M48V, S76T
# VL: B1 VL
# notes: Humanized, human IgG4/kappa; also called huBSG11F2B7G5E8-V7
# B6: huB8G11F2B7G5E8-V8 (antibody, human IgG4 S228P, kappa, V domains shown)
# VH: B1 VH with V24A, M48V, N77D
# VL: B1 VL
# notes: Humanized, human IgG4/kappa; also called huBSG11F2B7G5E8-V8
# B7: huB8G11F2B7G5E8-V9 (antibody, human IgG4 S228P, kappa, V domains shown)
# VH: B1 VH with V24A, M48V, H95Y
# VL: B1 VL
# notes: Humanized, human IgG4/kappa; also called huBSG11F2B7G5E8-V9
# B8: huB8G11F2B7G5E8-V10 (antibody, human IgG4 S228P, kappa, V domains shown)
# VH: B1 VH with V24A, M48V, K67R, A68V, S76T
# VL: B1 VL
# notes: Humanized, human IgG4/kappa; also called huBSG11F2B7G5E8-V10
# B9: huB8G11F2B7G5E8-V11 (antibody, human IgG4 S228P, kappa, V domains shown)
# VH: B1 VH with K38Q, R50L, S62E, K67R, A68V, S76T, N77D, H95Y
# VL: B1 VL
# notes: Humanized, human IgG4/kappa; also called huBSG11F2B7G5E8-V11
# B10: huB8G11F2B7G5E8-V13 (antibody, human IgG4 S228P, kappa, V domains shown)
# VH: QVQLQQSGAELVKPGASVKLSCTASGFNIKDTYMHWVKQRPEQGLEWVGRIDPTNGYTIYASKFQGKATITADTSSNTAYMQLSSLTSEDTAVYHCVSRRPWFAYWGQGTTLTVSS
# VL: B1 VL
# notes: Humanized, human IgG4/kappa; also called huBSG11F2B7G5E8-V13
# Target: T1, marmoset monkey IL4Rα-his protein
# Assay: indirect ELISA on coated cal-IL4Rα-his
row,Binder,EC50 [nM]
1,B1,1.06
2,B2,0.799
3,B3,0.726

# Target: T2, cynomolgus monkey IL4Rα-his protein (cynomolgus monkey, UniProt A0A2K5V580 33-239)
# T2 construct: Bought protein; also called Cynomolgus IL4Rα; Cyno-IL4Rα-his; not shown: his tag
# Assay: indirect ELISA on coated cynomolgus IL4Rα-his
row,Binder,EC50 [nM]
1,B1,137
2,B2,914
3,B3,7.12

# Target: T3, human IL4Rα expressed on 293F-IL4Rα cells (human, UniProt P24394 26-825)
# T3 construct: whole, on cells; also called cell surface human IL4Rα
# Assay: flow cytometry on 293F-IL4Rα cells, blocked ligand biotin human IL4
row,Binder,IC50 [nM]
1,B1,0.601
2,B2,0.538
3,B3,0.513

# Target: T4, recombinant human IL4Rα-his protein (in house made) (human, UniProt P24394 26-232, limits assumed)
# T4 construct: also called Human IL4Ra-his
# Assay: SPR (Biacore), antibody captured, IL4Rα-his flowed
Binder,Kd [nM],koff [s⁻¹],kon [M⁻¹ s⁻¹]
B1,3.69,0.00113,306000
B2,3.1,0.00162,521000
B3,3.21,0.00185,577000
B4,3.95,0.00219,554000
B5,3.75,0.00222,592000
B6,4.89,0.00283,578000
B7,5.32,0.00331,621000
B8,4.79,0.0028,585000
B9,14.9,–,–
B10,3.87,0.0012,310000

# Target: T3, human IL4Rα expressed on 293F-IL4Rα …
# Assay: flow cytometry on 293F-IL4Rα cells
row,Binder,EC50 [nM]
1,B1,0.517
2,B2,0.426
3,B3,0.414

# Target: T3, human IL4Rα expressed on 293F-IL4Rα …
# Assay: flow cytometry, 293F-IL4Rα cells
# Experimental: Then, 2×10⁵ cells per well in 96 well-plates were incubated in 100 μL of the anti-IL4Rα antibodies or controls of various concentrations (starting at 80 nM with a 4-fold serial dilution) in FACS buffer for 40 minutes on ice. […] Following an incubation of 40 minutes at 4° C. in dark, cells were washed three times and resuspended in FACS buffer. Fluorescence was measured using a Becton Dickinson FACS Canto II-HTS equipment. Data was analyzed using Graphpad Prism software and EC₅₀ values were reported.
row,Binder,EC50 [nM]
1,B1,0.52
2,B2,0.43
3,B3,0.41

# Target: T1, marmoset monkey IL4Rα-his protein
# Assay: indirect ELISA, coated cal-IL4Rα-his
row,Binder,EC50 [nM]
1,B1,1.06
2,B2,0.8
3,B3,0.73

# Target: T4, recombinant human IL4Rα-his protein (in …)
# Assay: competitive ELISA: antibody mixed with biotin human IL4Rα-his, competitor plate-coated Benchmark
row,Binder,IC50 [nM]
1,B1,0.763
2,B2,1.2
3,B3,1.24

# Target: T2, cynomolgus monkey IL4Rα-his protein
# Assay: indirect ELISA, coated cyno IL4Rα-his
row,Binder,EC50 [nM]
1,B1,137
2,B2,914
3,B3,7.12

# Target: T4, recombinant human IL4Rα-his protein (in …)
# Assay: capture ELISA: antibody captured on anti-IgG Fc plate, biotin human IL4Rα-his detected
row,Binder,EC50 [nM]
1,B1,0.237
2,B2,0.274
3,B3,0.275

# Target: T4, recombinant human IL4Rα-his protein (in …)
# Assay: SPR (Biacore), antibody captured, IL4Rα-his flowed
# Remark: another data set of the same source
row,Binder,Kd [nM]
1,B1,3.88
2,B2,4.1
3,B3,5.5

# Target: T4, recombinant human IL4Rα-his protein (in …)
# Assay: competitive ELISA: coated human IL4Rα-his, blocked ligand biotin human IL4
row,Binder,IC50 [nM]
1,B1,1.02
2,B2,1
3,B3,0.825

# Target: T4, recombinant human IL4Rα-his protein (in …)
# Assay: competitive ELISA, blocks biotin-IL4Rα-his binding to coated Benchmark (competitor)
# Experimental: The ability of the anti-IL4Rα antibodies of the disclosure to block benchmark-human IL4Rα binding was measured in a competitive ELISA assay. Briefly, the benchmark was coated on 96-well micro plates at 2 μg/mL in PBS, 100 μl per well, and incubated overnight at 4° C. The next day, plates were washed with wash buffer (PBS+0.05% w/v Tween-20, PBST), and blocked with 5% w/v non-fatty milk in PBST for 2 hours at 37° C. tiring plate blocking, the anti-IL4Rα antibodies of the disclosure or controls were diluted with biotin labeled human IL4Rα-his proteins (prepared in-house with SEQ ID NO: 57, 0.55 nM in 2.5% w/v non-fatty milk in PBST), starting at 100 nM with a 4-fold serial dilution, and incubated at 25° C. for 40 minutes. After plate washing, the antibody/IL4Rα-his mixtures were added to benchmark coated plates, 100 μl per well. After incubation at 37° C. for 40 minutes, plates were washed using wash buffer. Then the plates were added and incubated with 100 μl/well streptavidin conjugated HRP for 40 minutes at 37° C. to detect biotin-labeled human IL4Rα-his bound to plates. Plates were washed again using wash buffer. Finally, TMB was added and the reaction was stopped using 1M H₂SO₄, and the absorbance was read at 450 nm. Data was analyzed using Graphpad Prism software and IC₅₀ values were reported.
row,Binder,IC50 [nM]
1,B1,0.76
2,B2,1.2
3,B3,1.24

# Target: T4, recombinant human IL4Rα-his protein (in …)
# Assay: competitive ELISA, blocks biotin-IL4 binding to coated IL4Rα-his
# Experimental: Serially diluted anti-IL4Rα antibodies or the controls (starting at 80 nM with a 4-fold serial dilution) in 2.5% w/v non-fatty milk in PBST, 100 μl per well, were added to the IL4Rα bound plates, and incubated with the human IL4Rα-his proteins at 37° C. for 40 minutes. Plates were washed 4 times using wash buffer, and then added and incubated for 40 minutes at 37° C. with 100 μl/well of 0.56 nM biotin-labeled human IL4 protein (Sino biological inc., Cat #11846-HNAE). Plates were washed again using wash buffer. Thereafter, the plates were added with 100 μl/well of streptavidin conjugated HRP (1:10000 dilution in PBST buffer, Jackson Immunoresearch, Cat #016-030-084) and incubated for 40 minutes at 37° C. Plates were washed again using wash buffer. Finally, TMB was added and the reaction was stopped using 1M H₂SO₄, and the absorbance was read at 450 nm. Data was analyzed using Graphpad Prism software and IC₅₀ values were reported.
row,Binder,IC50 [nM]
1,B1,1.02
2,B2,1
3,B3,0.82

# Target: human IL4Rα expressed on HEK293T-IL4Rα-STAT6-STAT6LUC-LB2 cells (human, UniProt P24394 26-825)
# Assay: cell-based or functional assay
Binder,"Inhibition on IL4 induced STAT6 phosphorylation (IC50, nM) [nM]","Inhibition on IL13 induced STAT6 phosphorylation (IC50, nM) [nM]"
B1,0.26,0.66
B2,0.4,0.63
B3,0.3,0.81

# Target: T3, human IL4Rα expressed on 293F-IL4Rα …
# Assay: flow cytometry, blocks biotin-IL4 binding to 293F-IL4Rα cells
# Experimental: Then, 1×10⁵ cells per well in 96 well-plates were incubated in 100 μL of the anti-IL4Rα antibodies or controls of various concentrations (starting at 80 nM with a 4-fold serial dilution) in FACS buffer for 40 minutes on ice. The plates were washed twice with FACS buffer, and added and incubated for 40 minutes at 4° C. in dark with 100 μl/well 1.67 nM biotin-labeled human IL4 protein (Sino biological inc., Cat #11846-HNAE). The plates were washed twice with FACS buffer, and then added and incubated for 40 minutes at 4° C. in dark with 100 μl/well R-Phycoerythrin Streptavidin (1:500 dilution in FACS buffer, Jackson Immunoresearch, Cat #016-110-084). Cells were washed twice and resuspended in FACS buffer. Fluorescence was measured using a Becton Dickinson FACS Canto II-HTS equipment. Data was analyzed using Graphpad Prism software and IC₅₀ values were reported.
row,Binder,IC50 [nM]
1,B1,0.6
2,B2,0.54
3,B3,0.51

# Target: T4, recombinant human IL4Rα-his protein (in …)
# Assay: capture ELISA, biotin-IL4Rα-his
row,Binder,EC50 [nM]
1,B1,0.24
2,B2,0.27
3,B3,0.27
